experiment: yeast display, Sf9 membrane polyspecificity reagent, FACS + sequencing; frameworks hold sequencing errors
In short: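 Nanobodies came from a synthetic yeast display library in Saccharomyces cerevisiae BJ5465, induced with galactose for 36–48 hours and stained for 1 hour at 4 °C with 10% biotinylated, detergent-solubilized Sf9 membrane reagent. Cells were enriched on streptavidin microbeads and then FACS-sorted, with low and high (top ~1%) gates set on anti-HA fluorescence for expression and streptavidin fluorescence for reagent binding. Each polyreactivity label reflects the gate a clone came from. Genes were amplified by colony PCR, sequenced by MiSeq 2 × 250 and filtered by CDR length.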

Sequence | polyreactivity (PSR sort gate)
QVQLVESGGGLVQAGGSLRLSCAASGSTFGPYVMRWYRQAPGKERELVAGISSSGGSTYYADSVKGRFTISRDNAKNTVYLQMNSLKPEDTAVYYCAAVWTTGWIDSYTAWYSYEYWGQGTQVTVSS | low polyreactivity
QVQLQESDGGLVQAGGSLRLSCAASGSISPQYYMGWYRQAPGKEREFVAISKGTTTYYADSVKGRLTISRVNAKNTVYLQMNSLKPEDTAVYCCAAVRWLQKVHAYWDQGTQVTVSS | low polyreactivity
QVQLVESGRGLVHAGGSLRLSCAASGSIFSPYAMGWYRPAPGKEREFVASITFNGGSTYYADSVKGRFTISRDNAKNTVYLQMTSLKPEDTAVYYCAATYWYDTYWLMDYWGQGTQVTVSS | high polyreactivity
QVQHVESGGGLVQAGGSLRLSCAASGSTYGYYAMGWYRQAPGKERELVAAITSGGTTNYADSVKGRFTISRDNAKNTVYLQMNSLKPEDTAVYYCNAVGTFVRFWTDGRDGVTYDYWGQGTKVTVSS | low polyreactivity
QLQLVESGGGLVQAGGSLRLSCAASGRTFIHYAMGWYRQAPGKERELVAAISDDASSTYYADSVKGRFTISRDNAKNTVYLQMNSLKPEDTAVYYCNVELAKVGGVEYDYWGQGTLVTVSS | low polyreactivity
QFQLVESGGGLVQAGGSLRLSCAASGRIIAFYARGWYRQAPGKERELVAAITSGSSTNYADSVKGRFTISRDNAKNTVYLQMNSLKPEDTAVYYCAAEGLRKGDRTDWKLYEYWGQGTQVTVSS | high polyreactivity
QVQLVESGGGLDQAGGSLRLSCAASGSIFSVYAMGWYRQARGKERELVAAITSGTSTYADSVKGRFTISRDNAKNSVYLQMNSLKPEDTAVYYCAAESGSPGYYYWGQGTQVTVSS | low polyreactivity
QVQLVESGGGLVQAGGSLRLSSAASGSTFSYYAMGWYRQAPGKDRELVAAITSSGGSTYYADSVKGRFTISRDNAKNTVYLEMNSLKPEDTEVYYCNTAYHVPYDYWGQGTQVTVSS | low polyreactivity
QVQLVESGGGLVQAGGSLRISCASSGFTIWGYTMVWYRQAPGKERELVAAITSTGSTYYADSVKGRFTISRDNAKNTVYLQMNSLKPEDTAVYYCAAESYYGYDYWGQGTQVTVSS | low polyreactivity
QVQLVESGGGLVQAGGRLRLSCAASGSIFDENTMGWYRQAPGKERELVAAITYSGTSTYYADTVKGRFTISRDNAKNTVYLQMNSLKPEDTAVYYCAAEQWRYDGSFTGYGYWGQGTQVTVSS | low polyreactivity
QVQLVESGGGLVQAGGSLRLSCAASGRIFEPYTMGWYRQAPGKEREFVATITASGDSTYYADSVKGRFTISRDNAKNTVFLQMNSLKPEDTAVYYCAAAPFGGYEYDYWGQGTQVTVSS | high polyreactivity
QVQLQESGGGLVQAGGSLRLSCAASGSIFKVVDMGLYRQAPAKEREFVATIGEGGNTYYADSVKGRFTISRDNAKNTVYLQMHSLKPEDTAVYFYAVVLGTSYRYTYWGQGTQVTVSS | low polyreactivity
QVQLVESGGGLVQAGGSLRLSCAASGSTFGDYAMGWYRQAPGKERELVAAMSRGGSTYYADSVKGRFTISRDNAKNTVYLQMNSLKPEDTAVYYCNKDEGYSASPDGSTFDYWGQGTQVTVSS | low polyreactivity
QVQLVESGGGLVQAGGSLRISCAASGIIFYLYTMGWYRQAPGKERELVAAITRGGSTYYADSVKGRFTISRDNAKNTVYLQMNSLKPEDTAVYYCAAKHGPGYRRWYDYWGQGTQVTVSS | high polyreactivity
QVQLVESGGGLVQAGGSLRLSCAASGIIFWYYAMGWYRQAPGKERELVAAISSGGSTTYADSVKGRFTISRDNAKNTVYLQMKSLKPEDTAVYYCAAVWLSLFKGWVDTHEYDYWGQGTQVTVSS | low polyreactivity
QVQLVESGGGLVQAGGSLRLSCAASGSTFWPYAMGWYRQAPGKERELVAAISSSGGSTYYADSVKGRFTISRDNAKNTVYLQMNSLKPEDTAVYYCNKDYHRPYGGGSKGDYWGQGTLVTVSS | low polyreactivity
QVQLVESGGGLVQAGGSLRLSCAASGSTFSYFAMGWYRQAPGKERELVAAISWNGGSTYYADSVKGRFTISRDNAKNTVYLQMNSLKPEDTAVYYCAAHPAYRDSWGEYDYWGQGTQVTVSS | low polyreactivity
QVQLVESGGGLVQAGGSLRLSCAASGIIFGRNVMGWYRQAPGKERELVAAISWSGGSTYYADSVKGRFTISRDNAKNTVYLQMNSLKPEDTAVYYCAASYWWIPMEYWGQGTQVTVSS | high polyreactivity
QVQLVESGGGLVHAGGSLRLSCAASGSTFFPYDMGWYRPEPGTERYFVAGISSDGGTSYADSVKGRFTISRDNAKNTVYLQMNSMKPEDTAVYDCAALQADGDRYPEFDLMDYWGQGSQVTVSS | low polyreactivity
QVQLVETGGGLVQAGGSLRLSCAASGSTFRYYAMGWYRQAPGTERELVAGISSNGGRTYYADSVKWRFTISRDNAKNTVYLQMNILKPEDTAVYYCNAGPYSRLYGDRDYDYWGQGTQVTVSS | high polyreactivity
QVQLVESGGGLVQAGGSLRLSCAASGSIFPAYAMGWYRQAPGKERELVASITGSGGSTYYADSVKGRFTISRDNAKNTVYLQMNSLKPEDTAVYYCNARYYVYSATVDRYYHFYYWGQGTQVTVSS | high polyreactivity
QVQHVETGGGLVQAGGSLRLSCAASGIFGYNAMGGYRQAPAKERELVAGITKSGARTYYADSVKGRFTISRDNAKNTVYLQMNSLKPEDTAVYYCKAVGKRFYNDDYWGQGTQVTVSS | high polyreactivity

Sequence | polyreactivity (PSR sort gate)
QVQLVESGGGLVQAGGSLRLICAASGLIFTHNTMGWYRQAPGKERELVAAITTSGGTTYYADSVKGRFTISRDNAKNTVYLQMNSLKPEDTAFYYCAARAPWPKWGYYYWGQGTQVTVSS | high polyreactivity
QVQLVESGGGLVQAGGSLRLSCAASGFIFAVNAMGWYRPAPGKERELVAAISRSGGTTYYADSVKGRFTISRDNAKNTVYLQMNSLKPEDTAVYYCARSSGLRSWRSSDYWGQGTQVTVSS | high polyreactivity
QVQLVESGGGLVQAGGSLRLSCAASGSIFTWYTMGWYRQAPGKERELVAAISWSGGRTYYADSVKGRFTISRDNAKHTVYLQMNSLKPEDTAVYYCAASAYGRPPFDYWGQGTQVTVSS | high polyreactivity
QDQLVESGGGLVQAGGSLRLSCSASGFTITHNAMGWYRQAPGKEREFVATISRSGGRTYYADSVKGRFTISRDNAKNTVFFQMNSLKPEDTPVYYCAARTSGYWYSYGSWGQGTQVTVSS | high polyreactivity
QVQLVESGGGLVQAGGSLRLSCAASGSTFTSYAIGWYRQAPGKERELVAAIRYSGGRTYYADSVKGRFTISRDNAKNTVYFQMNSLKPEDTAVYYCAARSKVYKVGYNYWGQGTQVTVSS | high polyreactivity
QVQLVESGGGLVQAGGSLRLSCAASGLIFDINAMGWYRQAPGKERDLVAAISFSDGITYYADSVKGRFTISRDNAKNTVYLHMNSLKPEDTAVYYCAVDYRIYRSGPMDYWGQGTQVTVSS | high polyreactivity
QVQLVESGGGLVQAGGSLRLSCAASGGIFRRYAMVWYRQAPGKERELVAGISYSGGSTYYADSVKGRFTISRDNAKNTVYLQMNSLKPEDTAVDYCATVGYVWYRSVNVWSPMDYWGQGTQVTVSS | high polyreactivity
QVQLVESGGGLVQAGGSLRLSCAASGRTFGANAMGWYRQAPGKERELVAAINSGDITNYADSVKGRFTISRDNAKNTVYLQMNSLKPEDTAVYYCAAGSYYTYSGYNYWGQGTQVTVSS | low polyreactivity
QVQLVESGGGLVQAGGSLRLSCAASGRTFLRYAMGWSRQAPGTETELVAAISSDGSTNYADSVKGRFTISRDNAKNTVYLQMNSLKPEDTAVYYCDADPQKWYTGYDYWGQGTQVTVSS | low polyreactivity
QFQLVESGRGLVQAGGSLRLSCAASGSIFYAYAMGWYRKAPGKEREFVAVISYSGGSTYYADSVQGRFTISRDKAKNTVYLQMNSLKPEDTAVYYCAARYRAWSGNYWGQGTQVTVSS | high polyreactivity
QVQLVESGGGLVQAGGSLRLSCAASGRIFPVYTMGWYRQAPGKERELVAAISGNGASTYYADSVKGRFTISRDNAKNTVYLQMNSLKPEDTAVYYCAAYFYYWGSTFVRYEYWGQGTQVTVSS | high polyreactivity
QVQLVESCGGLVQAGGSLRLSCAASGSIFGYNDMGWYRQAPGKERELVATLTWGGGRTRYADSVKGRFTISRDNAKNTVYLQMNSLIPEDTAVDYCAADKRSYSYVRPPRNHEDYWGQGTQVTVSS | low polyreactivity
QVQLVESGGGLVQAGGSLRLSCAASGRTYKINAMGCYRQAPGKERELVASISRTGGTTYYADSVKGRFTNSRDNAKNTVYLQMNSLNPEDTAVYYCAVSDFGLLDCLTIYDEYDYWGQGTQVTVSS | high polyreactivity
QVQLVESGGGLDQAGGSLRLSCAASGNTLNYYTMGWYRQAPGKEREFVAAISWRGSRTYYADSVKGRFTISRDNAKNTVYLQMNRLKQEDTAVYYCATARYGYYGWTPYGDYIFDYWGQGTQVTVSS | high polyreactivity
QVQLVESGGGLVQAGGSLRLSCAASGYIFPYYTMGWYRQAPGKERELVAAITIGGSTYYADSVKGRFTISRDNAKNTVYLKMNSLKPEDTAVYYCAAKYYDYLYRYIMEYWGQGTQVTVSS | low polyreactivity
QVQLVESGGGLVQAGGSLRLSCAASGIIFYPYAMGWYRQAPGKERELVADITSGGGTNYADSVKGRFTISRDNAKNTVYLHMNSLKREDTAVYYWAAEVRGYHWGTYYEFYYWGQGTQVTVSS | low polyreactivity
QDQLVDSGGGLLQAGGSLRLSCAASGSTFHPYAMGWYRQAPGKERELVAAITFSGGSTYADSVKGRFTISRDNAKNTVYIQMNSLKPEDTAVYYCAAEWWYWRGWRDYWGQGTQVTVSS | low polyreactivity
QVQLVESGGGLVQAGGSLRLSCAASGYIFITYAMGWYRQAPGKERELVAAISRRGGRTYYADSVKGRFTISRDNAKNTVYLQMNSLKPEDTAVYYCAADPATSVYGGLNYWGQGTQVTVSS | high polyreactivity
QVQLVESGGGLVQAGGSLRLSCAASGRTFRSYAMGWYRQAPGKERELVAGISYNGGSTYYADSVKGRFTISRDNAKNTVYLQMNSLKPEDTAVYYCAATDHYRLYDYWGLGTQVTVSS | low polyreactivity
QVQLVESGGGLVQAGGSLRLSCAASGSTFRYYAMGWYRQAPGKERELVAAIDWSGGTTYYADSVKGRFTISRDNAKNTFYLQMNSLKPEDTAVYYCAADSSRRIGEDYWGHGTQVTVSS | low polyreactivity
QVQLVESGGGLVQAGGSLRLSCAASGLIFYRNAMGRTRQAPGKERELVAAISASGGRTYYADSVKGRFTISRDTEKNTVYLPMNSLKPEDTAVYYCAAKSLLLSMDYWGQGTQVTVSS | high polyreactivity
